Target: T1, Tfb2 (p52), subunit of TFIIH (S. cerevisiae, UniProt Q02939 1-513)
T1 construct: Tfb2 (p52 in human), subunit of S. cerevisiae TFIIH; Stood in the assay as a subunit of TFIIH
T1 sequence: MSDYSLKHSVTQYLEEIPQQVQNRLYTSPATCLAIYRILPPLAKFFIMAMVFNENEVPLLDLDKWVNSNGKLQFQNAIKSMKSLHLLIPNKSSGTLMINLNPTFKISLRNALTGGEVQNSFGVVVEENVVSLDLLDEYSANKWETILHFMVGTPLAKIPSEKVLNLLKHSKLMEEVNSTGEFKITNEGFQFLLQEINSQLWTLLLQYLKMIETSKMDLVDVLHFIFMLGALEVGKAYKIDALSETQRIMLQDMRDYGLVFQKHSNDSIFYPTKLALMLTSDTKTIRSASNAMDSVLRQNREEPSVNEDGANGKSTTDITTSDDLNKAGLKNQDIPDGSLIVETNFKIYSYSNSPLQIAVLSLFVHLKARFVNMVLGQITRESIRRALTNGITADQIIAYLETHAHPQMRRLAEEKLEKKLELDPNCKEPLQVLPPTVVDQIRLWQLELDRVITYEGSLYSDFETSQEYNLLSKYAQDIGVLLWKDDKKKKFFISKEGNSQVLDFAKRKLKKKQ
Assay: cryo-EM structure; PIC-nucleosome complex A, without NTPs; PIC assembled in vitro on nucleosomal 209 bp His4 promoter/Widom-601 scaffold, GraFix (15-40% sucrose, 0-0.1% glutaraldehyde); overall 3.3 Å
Details: both partners purified

binding result: binds
B1: Tfb5, subunit of TFIIH (natural protein, S. cerevisiae)
chain: MARARKGALVQCDPSIKALILQIDAKMSDIVLEELDDTHLLVNPSKVEFVKHELNRLLSKNIYNPMDEEENQ
notes: Tfb5, subunit of S. cerevisiae TFIIH; Stood in the assay as a subunit of TFIIH
